Measurements: the supplement of paper PMC9732359
± gives the uncertainty stated by the source.

Experiment: protein stability index of a GFP-peptide fusion (yeast GPS) (PSI 1-4); higher = more stable; sorted into four equal gates, so the index is relative within each strain
Summary of the method: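 Plasmids isolated from each sorting gate were PCR-amplified and Illumina-sequenced, and barcodes assigned the reads to strains. The gates, four of equal size, were set by GFP/Cherry fluorescence ratio on mid-log cultures in leucine-free medium. These cultures were yeast carrying a pooled library of tiled 17-residue yeast protein peptides fused downstream of GFP on a plasmid that also expresses Cherry. The protein stability index is the sum of every gate's read frequency times its gate number.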

Sequence | protein stability index (doa10∆) | protein stability index (pdr5∆) | protein stability index (san1∆) | protein stability index (ubr1∆)
TLGKLSTSVGWKYEDVV [RPL16B] | 2.82 ± 0.062 | 2.42 ± 0.069 | 2.71 ± 0.11 | 2.81 ± 0.059
SGRNIHLAVVCVDDNSK [SSN2] | 2.14 ± 0.087 | 1.61 ± 0.045 | 1.48 ± 0.085 | 2.96 ± 0.045
ATLGIDPPKGILLYGPP [RPT1] | 2.97 ± 0.078 | 2.96 ± 0.077 | 2.95 ± 0.13 | 2.98 ± 0.047
EVGDVCINELDNWNAPL [RPO31] | 3.21 ± 0.086 | 3.06 ± 0.074 | 3.21 ± 0.052 | 3.25 ± 0.053
CRQEFLERVKANAAKRA [RPL21A] |  | 1.33 ± 0.23 |  | 
TLNSRALSGLYYKNFHN [SNM1] | 2.17 ± 0.052 | 2.38 ± 0.06 | 1.88 ± 0.063 | 2 ± 0.042
NNLEPRQTTSNTGLLNK [RPN11] | 3.2 ± 0.062 | 3.24 ± 0.061 | 3.14 ± 0.044 | 3.32 ± 0.046
DFVRKGGLQKGKLVVSQ [SIR3] | 3.14 ± 0.079 | 3.22 ± 0.091 | 2.75 ± 0.055 | 3.35 ± 0.077
VKPHDEGSKSHPFGHAL [RPL27A] | 2.95 ± 0.064 | 2.97 ± 0.053 | 2.88 ± 0.08 | 3.1 ± 0.047
TIRVVTENKIFVEVERA [RPN5] | 1.51 ± 0.18 | 1.94 ± 0.14 |  | 2.45 ± 0.27
EFFSTNWLSIFNDFSNI [REC8] | 2.83 ± 0.075 | 2.91 ± 0.067 | 2.09 ± 0.098 | 2.83 ± 0.08
VPKLESSRTKFWSFLDS [YJL039C/NUP192] | 1.61 ± 0.29 |  | 1.61 ± 0.13 | 1.44 ± 0.096
PYNLNLFPNELYNVMGI [RPC31] | 2.12 ± 0.061 | 2.52 ± 0.092 | 2.71 ± 0.086 | 2.38 ± 0.12
GQGAFGNMCRGGRMFAP [RPL4A] | 3.61 ± 0.2 | 3.06 ± 0.27 | 3.23 ± 0.067 | 3.4 ± 0.11
APKGSTDPKELYNNAHV [RPC40] | 2.92 ± 0.14 | 2.96 ± 0.082 | 2.68 ± 0.11 | 3.21 ± 0.062
EQTEGEPKKKRGFLGLF [SRP68] | 3.1 ± 0.096 | 3.26 ± 0.11 | 2.9 ± 0.064 | 2.76 ± 0.066
AISKKDLEEVKRFQVLY [SEC65] | 2.6 ± 0.16 | 3.02 ± 0.1 | 2.8 ± 0.29 | 2.3 ± 0.13
FIESIVVDFKNKENDNV [SNF12] | 2.55 ± 0.15 | 3.04 ± 0.18 |  | 3.03 ± 0.27
AFITQLESSITDAGVLA [YJL039C/NUP192] | 1.54 ± 0.06 | 1.6 ± 0.057 | 1.16 ± 0.14 | 1.08 ± 0.096
MTAMRLMLKKLKNSIMS [YML031W/NDC1] | 1.6 ± 0.085 | 1.99 ± 0.087 | 2.16 ± 0.12 | 2.28 ± 0.059
KNEPDYSKAKYPDLQPF [CDC53] | 2.35 ± 0.086 | 2.58 ± 0.089 | 2.06 ± 0.13 | 2.5 ± 0.085
VESVCQKLDILVAKLKK [SMC4] | 1.9 ± 0.093 | 2.19 ± 0.051 | 2.24 ± 0.087 | 2.12 ± 0.048
ACDPSEIEPILMEIHNI [RGR1] | 2.82 ± 0.13 | 2.74 ± 0.1 | 3.16 ± 0.08 | 2.92 ± 0.067
LLEKANNQQRLLLKKLD [SMC3] | 2.31 ± 0.074 | 2.56 ± 0.074 | 2.28 ± 0.06 | 2.39 ± 0.044
PQLSKAGKFPTPVSHND [RPL1A] | 2.31 ± 0.04 | 2.87 ± 0.048 | 2.36 ± 0.048 | 2.62 ± 0.031
RLNENKKIGCYMFANLE [CSN12] | 2.76 ± 0.17 | 3.14 ± 0.18 | 3.25 ± 0.084 | 3.27 ± 0.11
NETNDKKRNPSKQNGSK [PRP28] | 3.21 ± 0.096 | 3.15 ± 0.066 | 3.02 ± 0.051 | 3.23 ± 0.039

Sequence | protein stability index (doa10∆) | protein stability index (pdr5∆) | protein stability index (san1∆) | protein stability index (ubr1∆)
VSTLIAGFDPRDDEPKL [PRE6] |  |  | 3.12 ± 0.077 | 
LEASLNSITKDNIDYAP [YJL039C/NUP192] | 2.7 ± 0.05 | 2.43 ± 0.041 | 2.47 ± 0.039 | 2.27 ± 0.026
DDIFIRYLTLLSNEFTA [ECM29] | 2.14 ± 0.056 | 1.91 ± 0.051 | 2.44 ± 0.074 | 1.76 ± 0.029
LRFPEHTSSGSVSFKVF [BRR2] | 1.59 ± 0.055 | 1.51 ± 0.054 | 1.33 ± 0.1 | 1.57 ± 0.06
SPSPILLTSAGCKNGSF [NUT1] | 2.01 ± 0.1 | 2.06 ± 0.052 | 1.61 ± 0.24 | 2.41 ± 0.073
HYGQTLGKKKNVKEEET [RPS8A] | 2.62 ± 0.035 | 2.84 ± 0.035 | 2.38 ± 0.033 | 2.879 ± 0.026
LISKPAKKNNFIEDLAP [UBP6] | 2.54 ± 0.084 | 2.73 ± 0.066 | 2.73 ± 0.069 | 2.7 ± 0.062
VSPNAAPRQEISEEETT [YAR002W/NUP60] | 3.19 ± 0.1 | 2.88 ± 0.077 | 2.9 ± 0.086 | 2.6 ± 0.12
SEVRKAVSIETALEHKV [FAS2] | 1.67 ± 0.12 | 1.4 ± 0.095 | 1.35 ± 0.12 | 1.39 ± 0.051
NLQTADTVIIFDTDWNP [SNF2] | 2.57 ± 0.14 | 2.96 ± 0.091 | 2.8 ± 0.078 | 2.34 ± 0.064
YGGSRCANCVKERIVRA [RPL34B] | 3.36 ± 0.21 | 3.38 ± 0.089 | 2.87 ± 0.076 | 3.15 ± 0.14
STQPSFAWSKPSTGSNL [YGR119C/NUP57] | 2.98 ± 0.054 | 3.04 ± 0.055 | 3.01 ± 0.048 | 2.98 ± 0.038
VFLLTTRAGGLGINLVT [ISW2] | 1.69 ± 0.076 | 1.7 ± 0.063 | 1.56 ± 0.13 | 1.4 ± 0.13
MSKIQVAHSSRLANLID [SMB1] | 1.47 ± 0.096 | 1.81 ± 0.15 | 1.09 ± 0.14 | 1.2 ± 0.15
RARKDRMRVSVLEKYEV [SSN3] | 2.02 ± 0.11 | 2.65 ± 0.089 | 2.19 ± 0.13 | 1.97 ± 0.039
SYFKNSVIVKFHSEPDR [LIN1] | 2.23 ± 0.062 | 2.59 ± 0.075 | 2.44 ± 0.067 | 2.77 ± 0.047
NFNPDNGFAPISEVMED [FAS1] | 3.3 ± 0.085 | 3.06 ± 0.042 | 3.2 ± 0.044 | 3.17 ± 0.033
IDNLKDTLKENATEVQK [ITC1] | 2.66 ± 0.05 | 2.87 ± 0.068 | 2.92 ± 0.05 | 2.88 ± 0.05
KDTTGPKAISNFLIKLS [YCS4] | 2.09 ± 0.11 | 2.08 ± 0.1 | 1.34 ± 0.14 | 1.52 ± 0.065
IRQAIAKGLVAYHQKYV [RPS16A] | 1.21 ± 0.096 | 1.27 ± 0.069 | 1.41 ± 0.18 | 1.1 ± 0.033
SLVEVVFYRGMTMQVAV [FAS1] | 1.32 ± 0.06 | 1.88 ± 0.059 | 1.4 ± 0.11 | 1.99 ± 0.12
QMMSKGIGALFTQQELQ [RPC34] | 3.3 ± 0.11 | 3.26 ± 0.12 | 3.12 ± 0.07 | 3.34 ± 0.08
PRVSNQSNEDTFLPSYM [RRI2] | 3.07 ± 0.087 | 3.05 ± 0.09 | 3.14 ± 0.089 | 3.44 ± 0.067
DATANATANATANATAN [DSN1] | 3.25 ± 0.086 | 3.04 ± 0.071 | 3.37 ± 0.053 | 3.12 ± 0.043
EFIFGTYNMIDAAAEKR [ARP7] | 2.99 ± 0.057 | 3.02 ± 0.057 | 3.08 ± 0.044 | 3.12 ± 0.04
SFLSKHALYLAPSGIRM [SSN2] | 2.12 ± 0.067 | 1.56 ± 0.059 | 1.46 ± 0.12 | 2.19 ± 0.086
